Source: the nanobody polyreactivity screen of Harvey et al. (2022)

Experiment: yeast display, Sf9 membrane polyspecificity reagent, FACS + sequencing; frameworks hold sequencing errors
How it was run: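 Polyreactivity labels are assigned by the sorting gate from which each nanobody was recovered. The gates were low and high (top ~1%), set on anti-HA fluorescence for expression and streptavidin fluorescence for reagent binding. Before sorting, galactose-induced (36–48 hours) yeast display cells were stained for 1 hour at 4 °C with 10% biotinylated, detergent-solubilized Sf9 membrane reagent.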

Sequence	polyreactivity (PSR sort gate)
QVQLVESGGGLVQAGGSLRLSCAASGFTFYVNVMGWYRQPPGKEREFVAAIRTRGASTYYADSVKGRFTISRDNAKNTVYLQMNSLKPEDTADYYCAAGWFWNYWYGVSMDYWGQGTQVTVSS	high polyreactivity
QVQLVESGGGLVQAGGSLRLSCAASGFTFRANGMGWYRQAPGKETELVATITSGGTTNYADSVKGRFTISRDNAKNTVYLQMNSLKPEDTAVYYCAKRFGPAYFRLYDYWGQGTQVTVSS	low polyreactivity
QVQLVESGGGLVQAGGSLRLSCAASGSIFNGYAMGWYRQAPGKERELVATITRGGGSTYYADSVKGRFTISRDNAKNTVYLQMNSLKPEDTAVYYCAKTYFYGVRRFNYWGQGTQVTVSS	high polyreactivity
QVQLVESGGGLVQAGGSLRLSCAASGSTFCRNAMGWYRQAPGKEREFVAVISISSGTTYADSVKGRFTISRDNAKNTVYLQMNSMKPEDTAVYYCAAAIGVYYIDYRYLGTVEYWGQGTQGTVSS	low polyreactivity
QVQVVESGGGIVHAGGSLRLSCAASGFIFLVNGMVWYRQAPGKERELVAAISFDGGSTYADSVKGRFTISRDNAKNTVYLLMTSLKPEDTAVFYCATDVRGVDGEDYSWGQGTQVTVSS	low polyreactivity
QVQLVESGGGLVQAGGSLRLSCAASGSIFSYYAMGWYRQAPGKERELVAAISGSGGSTYYADSVKGRFTISRDNAKNTVYLQMNSLKPDDNAVYSCAARYYAWGRRRTWDDYWGQGTQVTVSS	high polyreactivity
QVQLVESGGGLVQAGGRLPLSCAASGSTYSVNAMGWYRQAPGKERELVAAITRSGGSTYYADSVKGRFTISRDNAKNTVYLQMNSLNPEDTAVYYCAAEIYPLGEYWGQGTQVTVSS	low polyreactivity
QVQLVESGGGLVQAGGSLRLSCAASGSTFVGYAMVWYRQAPGKERELVAAISRSGGSTYYADSVKGRFTISRDNAKNTVYLQMNSLKPEDTAVYYCAAGARAFDDDFWGQGTQVNVSS	low polyreactivity
QVQLVESGGGLVQAGGSLRLSCAASGRIFYGNTMGWYRPAPGKERELVAAITGSGTSTYYADSVKGRFTISRDNAKNTVYLQMNSLKPEDTAVYYCNADRPVYVDYINGGYGYWGQGTQVTVSS	low polyreactivity
QVQLEESGGGLVQAGGSLRLSCAPSGLTFGGNAMGWYRQAPGKERELVAAISSGGSTNYADSVKGRFTISRDNAKNTDFLNMNSLKPEDTAVYYCAARDRPGNYFTEYGYWGQGTQVTVSS	low polyreactivity
QVQLVESGGGLVQAGGSLRLSCAASGSILLYYTMGWYIQAPGKEWELVAAISWSGGSTYYADSVKGRFTISRDNAKNTVYLLMISLKPEDTAVYYCATRSVQGSYFAGYGYWGQGTQVTVSS	low polyreactivity
QVQLVESGGGLVQAGGSLRLSCAASGSTFTYNAMGWYRQAPGKERELVAAISSDGRTYYADSVKGRFTISRDNAKNTVYLQMNSLKPEDTAVYYCAAYFSGLTYGYYVAGYDYWGQGTQVTVSS	low polyreactivity
QVQLVESVVGLVQAGGSLRVSCAAYGRTFWYYPMGWYRQAPGKERELVAGITFTGGRTYYADSVKGRFTISRDNAKHTVYLQMNSLKPEDTAVYYCAAAGLVVGRKDRDGYWGLGTQVTVSS	low polyreactivity
QVQLVESGGGLVQAGGSLRLSCAASGFIFPYYAMGWYRQAPGKERELVAAITSSGGSTYYADSVKGRFTISRDTAKNTVYLQMTSLKPEDNAVYYCNAYVRRTRDYDYWGQGTQVTVSS	high polyreactivity
QVQLVESGGGLVQAGGSLSLSCAASGLNFVKNTMGWYRQAPGKETELVAGISQRGGSTYYADSEKGRFTISRDNAKNTVYLQMNSLKPEETAVYYCAAYSRTFEGHRGGYWGQGTQVTVSS	high polyreactivity
QVQLVESGGGLVQAGGSLRLSCAASGRTFNKYAMGWYRQAPGKERELVAAISTRGGSTYYADSVKGRFTISRDNAKNNVYLQMNSLKPEDTAVYYCAARLTTVGQGFDYWGQGTKVTVSS	high polyreactivity
QVQLVESGGGLVQAGGSLRLICAASGSTLVVNAMGWYRQAPGKERELVAAITSGGSTNYADSVKGRFTISRDNAKNTVYLQMNSLKPEDTAVYYCNAERGRSFWWAYDYWGQGTQVTVSS	low polyreactivity
QVQLVESGGGLVQAGGSLRLSCAASGFIFRDNAMGWYRQAPGKERELVAASSSRGGSTYYADSVKGRFTISRDNAKNTVYLQMNSLKPEDTAVYYCAKRPYKYRVQLDSWGPGTQVTVSS	high polyreactivity
QVQLVESGGGLVQAGGSLRLICAASGRIFPSYTMGWYRQAPGKERELVAGITKSGSSTYYADSVKGRFTISRDNAKNTVYLQMNSLKPEDTAVYYCAAVYGNPSYRYGYWGQGTQVTVSS	high polyreactivity
QVQLVESGGGLVQAGGSLRIICAASGSIFVEYAMGWYRQAPGKERELVAAITYRGGSTYYADSVKGRFTISRDNAENTVYLQMNSLKPEDTAVYYCAAAVYYWGTSAYEYWGQGTQVTVSS	low polyreactivity
QVQLVESGGGLVQAGGSLRLSCAASGSIFSYYTMGWYRQAPGTERELVAASTRGGRTSYADSVKGRFTISRDNAKNTVYLQMNSLKPEDTAVYYCAADYWYFTHQLSTYGDNYWGQGTQVTVSS	low polyreactivity

Sequence	polyreactivity (PSR sort gate)
QVQLVESGGGIVKAGGSLGISCAASGRIFDYYDMLWYRQAPGKERELVAAITQSGGSTNYADSVKGRFTISRDNAKNTVYLQMNSLKPEDTAVYYCAGVGYYTKRRFGYWGQGTQVTVSS	high polyreactivity
QVQLVESGGGLVQAGGSLRISCAASGLIFGRYAMGWYRQAPGKERELVAAISSSGVRTYYADSVKGRFTISRDNAKNTVYLQMNSLKPEDTAVYYCAAAYWSSREDTVIKRYYWGQGTQVTVSS	high polyreactivity
QVQLVESGGGLVQAGGSLRLSCAASGRIFYINAMGWYRQAPGKEWELVAGITRSGGSTYYADSVKGRFTISRDNAKNTVYLQMNSLKPEDTAVYYCNAGRYARQHSRYDYWGQGTQVTVSS	high polyreactivity
QVQLVESGGGLVQAGGSLRLSCAASGSTFATYTMGWYRQAPGKERELVAAISVSGSRTYYADSVKGRFTISRDNAKNTVYLQMNSLKPEDTAVYYCNTLLRPRWSYDYWGQGTQVTVSS	high polyreactivity
QVQLVESGGGLVQAGGSLRLSCAASGITFYYYAMGWYTQAPGKERELVAAISDNGSRTYYADSVKGRFTISRDNAQNTVYLQMNSLKPEDTAVYYCAAEGSYGYDYWGQGTQVTVSS	high polyreactivity
QVQHVESGGGLVQAGGRLRLSCAASGSTFDYYVMGWYRQAPGKEREMVAAISQNAGSTYYADSVKGRFTISRDNAKNTVYLQMNSLKPEDTAVYYCAAPDYRNGVRYPLDYWGQGTQVTVSS	low polyreactivity
QVQLVESGGGLVQAGGSLRLSCAASGSTFPSNAMGWYRQAPGKERELVAAISRGGGTTYYADSVKGRFTISRDNAKNTVYLQMNSLKPEDTAVYYCATRGSVGWFDGGGYWGQGTQVTVSS	high polyreactivity
QVQLLETCGGLVHAGCTLRLSCAPSRSTFRYNDMGRYRQAPGKERELDASISWSGGDTYYADSVKGRFTISRDNAKNTVYLQMNSLKPEDTAVYYCDKGNIWISRLMDDWGQGTQVTVSS	low polyreactivity
HVQLVESGGGLVQAGGSLRLSCAASGRTFSFYVMGWYRQAPGKERELVAAISSSGGRTYYADSVKGRFTISRDNAKNTVYVQMNSLKPEDTAVYYCAVDQPFVSWRLFTQPDSYPRDYWGQGTQVTVSS	low polyreactivity
QVQLVQSGGGLFQAGGSLRLSCAASGRTFEPNAMGWYRQAPGKERQLVAAITNGGSTSYADSVKGRFTISRDNAKNSVYLQMNSLKPEDTAVYYFAGDLGRNLLHTYYYWGQGTQVTVSS	low polyreactivity
QVQLVDSAVGLVQAGGSLRLSCPASGSIISFYTMGWYRQAPGKERDLVASSTTYADSVKGRFTISRDNAKNTVYLQMNSLKPEVTAVYYCATRHPARRDYWGQGTQVTVSS	low polyreactivity
QVQLVESGGGLVQAGGSLRLSCAASGRTFSTYAMGWYRQAPGKERELVAAISTSGSRTYYADSVKGRFTISRDNAKNTVYFQMNSLKPEDTAVYYCAATPLYYRYYVWQYDYWGQGTQVTVSS	high polyreactivity
QVQLVESGGGLVQAGGSLRLSCAASGSIFGTNAMGWYRQAPGKERELLAAISLSTGSTYYADSVKGRITISRDYAKNTVYLQMNSLKPEDTAVYYCAVRHRYTRAYWGRDYWGQGTQVTVSS	low polyreactivity
QVQLVESGGGLVQAGGSLRLSCAASGSIFRAYAMGWYRQAPGKERELVATIRKSGGSTYYADSVKGRFTISRDNAKNTVYLQMNSLKPEDTAVYYCAARTIRYVNFYYWGQGTQVTVSS	high polyreactivity
QVQLVESGGGLVQAGGSLRLSCAASGFNFRVNAMGWYRQAPGKERELVAAITKSGGSTYYADSVKGRFTISRDNAKNTVYLQMNSLKPEDTAVYYCNVVWQYSTYVRYNYWGQGTQVTVSS	low polyreactivity
QVQLVESGGGLVQAGGSLRLSCAASGYTILTNAMGWYRQAPGKERELVADITSSGGSTYYADSVKGRFTISRDNAKNTVYLQMNSLKPEDTAVYYCAKRWYRNRYGYWGQGTQVTVSS	high polyreactivity
QVQLVESGGGLVQAGGSLRLSSAASGRTFHANAMGWYRQAPGKERELVARINWSGTSTYYADSVKGRFTISRDNAKNTVYLQMNSLKPEDTAVYYCAAGWIRLYSSLYDYWGQGTQVTVSS	high polyreactivity
QVQLVESGGGLFQEGGSLRLSCAASGFTFLVYAKGWYRQAPGKERQLVAAITWSGDSTYYADSVKGRFTISRDNAKNTVYLQMNSLKPEDTAFYYCAAAYRYGTLYYYWGQGTQVTVSS	low polyreactivity
QVQLVESGGGLVQAGGSLRLSCAASGSIFRTYAMGWYRQAPGKERELVATITFGGVSTYYADSVKGRFTISRDNAKTTVYVQKTSLKPEDTAVYYCAAEVYTRFWRVYRFDYWGQGTQVTVSS	low polyreactivity
QVQLVESGGGLVQAGGSLRLSCPASGSIFSLNAMGWYRQAPGKERELVAGISWSGGSTYYADSVKGRFTISRDNAKNTVYLQMNSLKPEDTAVYYCAARRYYPYISSGPYYYWGQGTQVTVSS	high polyreactivity
